The assay concerns the target T1, β2m of the single-chain construct (Homo sapiens (Human)., UniProt P61769).
T1 construct: β2-microglobulin; In the cryo-EM sample it is the middle part of m3; also called B2m; source: part of the single-chain construct m3
The assay is described as follows: cryo-EM structure; single-chain P2R-linker-β2m-linker-B∗73:01 copurified with Fabs B.1 and B.8; Hepes-buffered saline pH 7.2, about 0.07 mM fluorinated octyl maltoside; 3.1 Å. The conditions noted are these: both partners purified.

T1 sequence (P61769 21-119): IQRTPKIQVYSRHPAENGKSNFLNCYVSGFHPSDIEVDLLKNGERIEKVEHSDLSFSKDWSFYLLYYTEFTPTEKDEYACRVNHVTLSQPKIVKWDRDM

B1: Fab B.1 (Fab, V domains shown)
VH: EVQLVESGGGLVQPGGSLRLSCAASGFNVSYYSIHWVRQAPGKGLEWVASISPYSGSTSYADSVKGRFTISADTSKNTAYLQMNSLRAEDTAVYYCARYSYGNSWSYDPYYGAMDYWGQGTLVTVSS
VL: DIQMTQSPSSLSASVGDRVTITCRASQSVSSAVAWYQQKPGKAPKLLIYSASSLYSGVPSRFSGSRSGTDFTLTISSLQPEDFATYYCQQYYWAPITFGQGTKVEIK
notes: synthetic Fab; model deposited in PDB 8TNJ (constant domain portion not visible in the map)
As for B1, the binding result was “binds”.

These data come from paper PMC12450638 (The Journal of Biological Chemistry, 2025).
